Earlier results in PMC3413316.

Assays:
[1] = molecular target: Activated protein C (Homo sapiens) (UniProt P04070)
[2] = molecular target: Protein C (Homo sapiens) (UniProt P04070)
Protein C (Homo sapiens), sequence (P04070 43-197): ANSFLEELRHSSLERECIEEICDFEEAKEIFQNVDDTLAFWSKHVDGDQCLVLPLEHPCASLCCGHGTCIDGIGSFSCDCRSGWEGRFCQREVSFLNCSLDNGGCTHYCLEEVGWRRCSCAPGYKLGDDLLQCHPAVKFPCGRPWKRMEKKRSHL

EPCR, sequence (Q9UNN8 18-210): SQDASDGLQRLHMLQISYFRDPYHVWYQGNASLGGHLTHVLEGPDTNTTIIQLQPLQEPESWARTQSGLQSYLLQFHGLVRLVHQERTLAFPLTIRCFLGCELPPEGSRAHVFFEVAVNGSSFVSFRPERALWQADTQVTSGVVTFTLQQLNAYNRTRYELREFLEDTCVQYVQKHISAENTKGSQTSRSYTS
Activated protein C (Homo sapiens), sequence (P04070 43-197, chain 1 of 2): as the sequence (P04070 43-197) above
Activated protein C (Homo sapiens), sequence (P04070 212-461, chain 2 of 2): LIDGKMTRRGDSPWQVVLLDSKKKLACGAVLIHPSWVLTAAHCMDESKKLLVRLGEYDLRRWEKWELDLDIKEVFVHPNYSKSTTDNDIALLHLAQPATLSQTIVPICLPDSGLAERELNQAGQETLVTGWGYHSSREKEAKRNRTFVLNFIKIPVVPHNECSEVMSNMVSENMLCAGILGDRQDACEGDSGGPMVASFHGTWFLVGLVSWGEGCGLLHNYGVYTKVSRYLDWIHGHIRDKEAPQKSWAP

Question: What does the source list for EPCR (from UniProt Q9UNN8)?
Answer: Kd [1]: 60 nM; Kd [2]: 60 nM
